Data taken from PMC9482650, “Quantitative fragmentomics allow affinity mapping of interactomes” (Nature Communications, 2022).

Key:
Assay in all cases: holdup assay
Design in all cases: key: below the threshold = too weak to quantify, mostly under pKd 3.1 to 4
[1] = target: T1, GRIP1_1, Q9Y3R0
T1 sequence (Q9Y3R0 48-146, limits assumed, looked up): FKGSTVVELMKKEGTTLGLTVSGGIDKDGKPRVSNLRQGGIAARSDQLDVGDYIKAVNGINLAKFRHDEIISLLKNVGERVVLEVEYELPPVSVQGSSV

[2] = target: T2, SHANK3, Q9BYB0
T2 sequence (Q9BYB0 641-750, limits assumed, looked up): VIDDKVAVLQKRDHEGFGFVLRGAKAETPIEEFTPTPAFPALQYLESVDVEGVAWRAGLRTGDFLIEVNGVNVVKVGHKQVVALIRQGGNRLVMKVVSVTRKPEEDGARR

[3] = target: T3, LNX2_4, Q8N448
T3 sequence (Q8N448 595-690, limits assumed, looked up): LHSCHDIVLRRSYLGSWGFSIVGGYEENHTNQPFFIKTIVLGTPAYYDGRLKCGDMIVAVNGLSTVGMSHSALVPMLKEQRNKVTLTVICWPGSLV

[4] = target: T4, TJP3_1, O95049
T4 sequence (O95049 6-103, limits assumed, looked up): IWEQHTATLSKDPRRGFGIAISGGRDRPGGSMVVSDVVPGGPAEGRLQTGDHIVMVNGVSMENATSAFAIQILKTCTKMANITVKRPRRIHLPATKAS

[5] = target: SCRIB_4, Q14160
Chain of SCRIB_4, Q14160 (Q14160 1095-1204): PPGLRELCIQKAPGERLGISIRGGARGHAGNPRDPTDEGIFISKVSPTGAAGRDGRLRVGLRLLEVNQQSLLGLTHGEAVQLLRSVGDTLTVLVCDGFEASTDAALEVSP

[6] = target: T5, MLLT4, P55196
T5 sequence (P55196 1002-1103, limits assumed, looked up): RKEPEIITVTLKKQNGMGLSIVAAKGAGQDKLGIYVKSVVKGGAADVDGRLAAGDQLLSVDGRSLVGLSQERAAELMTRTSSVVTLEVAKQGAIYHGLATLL

[7] = target: DVL2, O14641
Chain of DVL2, O14641 (O14641 260-359): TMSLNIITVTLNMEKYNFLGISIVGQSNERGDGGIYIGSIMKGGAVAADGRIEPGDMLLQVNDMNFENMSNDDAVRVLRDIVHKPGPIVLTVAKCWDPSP

[8] = target: T6, MPDZ_13, O75970
T6 sequence (O75970 1982-2070, limits assumed, looked up): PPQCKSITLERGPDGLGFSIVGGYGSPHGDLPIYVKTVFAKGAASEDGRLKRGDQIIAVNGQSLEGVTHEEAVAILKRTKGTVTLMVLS

[9] = target: T7, PDZD2_5, O15018
T7 sequence (O15018 2617-2716, limits assumed, looked up): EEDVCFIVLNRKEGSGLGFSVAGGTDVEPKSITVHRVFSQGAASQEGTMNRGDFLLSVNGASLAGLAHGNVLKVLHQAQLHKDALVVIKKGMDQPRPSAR

[10] = target: T8, MPDZ_11, O75970
T8 sequence (O75970 1720-1817, limits assumed, looked up): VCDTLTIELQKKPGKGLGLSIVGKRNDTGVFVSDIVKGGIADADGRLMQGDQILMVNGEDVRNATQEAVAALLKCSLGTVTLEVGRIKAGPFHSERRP

[11] = target: T9, PDZD2_4, O15018
T9 sequence (O15018 723-823, limits assumed, looked up): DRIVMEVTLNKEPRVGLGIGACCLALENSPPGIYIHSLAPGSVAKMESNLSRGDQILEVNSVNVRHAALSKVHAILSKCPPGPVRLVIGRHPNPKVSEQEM

[12] = target: T10, SNTB2, Q13425
T10 sequence (Q13425 110-208, limits assumed, looked up): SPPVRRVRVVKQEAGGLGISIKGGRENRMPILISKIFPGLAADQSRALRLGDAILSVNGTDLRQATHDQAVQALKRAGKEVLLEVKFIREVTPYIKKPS

[13] = target: T11, MPP1, Q00013
T11 sequence (Q00013 66-162, limits assumed, looked up): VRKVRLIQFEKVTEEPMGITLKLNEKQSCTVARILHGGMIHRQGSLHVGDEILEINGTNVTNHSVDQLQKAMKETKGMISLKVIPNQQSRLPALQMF

[14] = target: MAGI3_3, Q5TCQ9
Chain of MAGI3_3, Q5TCQ9 (Q5TCQ9 572-655): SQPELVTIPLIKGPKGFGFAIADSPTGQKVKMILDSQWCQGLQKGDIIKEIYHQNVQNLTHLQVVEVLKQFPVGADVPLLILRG

[15] = target: SDCBP_1, O00560
Chain of SDCBP_1, O00560 (O00560 111-198): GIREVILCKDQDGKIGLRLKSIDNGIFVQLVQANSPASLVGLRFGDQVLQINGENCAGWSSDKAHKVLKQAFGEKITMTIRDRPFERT

[16] = target: T12, NHERF1_2, O14745
T12 sequence (O14745 149-244, limits assumed, looked up): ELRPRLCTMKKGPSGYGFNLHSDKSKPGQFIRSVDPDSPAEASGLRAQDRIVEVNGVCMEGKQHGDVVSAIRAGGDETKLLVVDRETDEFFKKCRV

[17] = target: PDZD9, Q8IXQ8
Chain of PDZD9, Q8IXQ8 (Q8IXQ8 23-120): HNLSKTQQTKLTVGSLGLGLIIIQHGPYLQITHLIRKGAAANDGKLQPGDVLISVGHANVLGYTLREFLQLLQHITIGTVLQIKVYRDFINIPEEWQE

[18] = target: DLG2_1, Q15700
[19] = target: PARD3B_3, Q8TEW8
Chain of PARD3B_3, Q8TEW8 (Q8TEW8 490-594): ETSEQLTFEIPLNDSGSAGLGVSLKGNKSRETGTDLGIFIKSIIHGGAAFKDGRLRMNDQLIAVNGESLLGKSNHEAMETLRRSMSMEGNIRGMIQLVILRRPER

[20] = target: T13, SYNPO2L, Q9H987
T13 sequence (Q9H987 1-98, limits assumed, looked up): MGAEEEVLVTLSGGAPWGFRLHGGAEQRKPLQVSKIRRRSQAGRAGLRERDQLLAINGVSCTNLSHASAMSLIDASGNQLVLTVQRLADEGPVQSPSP

[21] = target: T14, NHERF3_2, Q5T2W1
T14 sequence (Q5T2W1 129-225, limits assumed, looked up): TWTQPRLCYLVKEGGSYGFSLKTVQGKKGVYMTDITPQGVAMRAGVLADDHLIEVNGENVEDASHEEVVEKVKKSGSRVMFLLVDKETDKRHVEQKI

[22] = target: PREX1_1, Q8TCU6
Chain of PREX1_1, Q8TCU6 (Q8TCU6 608-718): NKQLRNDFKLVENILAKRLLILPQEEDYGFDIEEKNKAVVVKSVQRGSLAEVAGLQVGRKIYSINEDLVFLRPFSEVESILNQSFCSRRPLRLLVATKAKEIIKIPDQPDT

[23] = plain residues with an end cap or a label only (N-terminal biotin on a linker: ttds)
[24] = plain residues with an end cap or a label only (N-terminal biotin on a linker: none)

NYWPGKETQL [SLCO1C1, Q9NYB5]
pKd [1, 23]: below the threshold
pKd [2, 23]: below the threshold
pKd [3, 23]: 4.73
pKd [4, 23]: below the threshold
pKd [5, 23]: 4.83
pKd [6, 23]: below the threshold
pKd [7, 23]: below the threshold
pKd [8, 23]: below the threshold
pKd [9, 23]: below the threshold
pKd [10, 23]: below the threshold
pKd [11, 23]: below the threshold
pKd [12, 23]: 5.13
pKd [13, 23]: below the threshold
pKd [14, 23]: below the threshold
pKd [15, 23]: below the threshold
pKd [16, 23]: below the threshold
pKd [17, 23]: below the threshold
pKd [18, 23]: below the threshold
pKd [19, 23]: below the threshold
pKd [20, 23]: below the threshold
pKd [21, 23]: below the threshold
pKd [22, 23]: below the threshold

HIVEALETDV [PBK, Q96KB5]
pKd [1, 23]: below the threshold
pKd [2, 23]: below the threshold
pKd [3, 23]: below the threshold
pKd [4, 23]: below the threshold
pKd [5, 23]: below the threshold
pKd [6, 23]: below the threshold
pKd [7, 23]: 5.15
pKd [8, 23]: below the threshold
pKd [9, 23]: below the threshold
pKd [10, 23]: below the threshold
pKd [11, 23]: below the threshold
pKd [12, 23]: 4.87
pKd [13, 23]: below the threshold
pKd [14, 23]: 4.33
pKd [15, 23]: below the threshold
pKd [16, 23]: below the threshold
pKd [17, 23]: below the threshold
pKd [18, 23]: 4.74
pKd [19, 23]: below the threshold
pKd [20, 23]: below the threshold
pKd [21, 23]: below the threshold
pKd [22, 23]: below the threshold

IQREDQETAV [DGKZ, Q13574]
pKd [1, 23]: below the threshold
pKd [2, 23]: below the threshold
pKd [3, 23]: below the threshold
pKd [4, 23]: below the threshold
pKd [5, 23]: 4.4
pKd [6, 23]: below the threshold
pKd [7, 23]: 4.5
pKd [8, 23]: below the threshold
pKd [9, 23]: below the threshold
pKd [10, 23]: below the threshold
pKd [11, 23]: below the threshold
pKd [12, 23]: 5.16
pKd [13, 23]: below the threshold
pKd [14, 23]: below the threshold
pKd [15, 23]: below the threshold
pKd [16, 23]: below the threshold
pKd [17, 23]: below the threshold
pKd [18, 23]: 4.71
pKd [19, 23]: below the threshold
pKd [20, 23]: below the threshold
pKd [21, 23]: below the threshold
pKd [22, 23]: below the threshold

DPLTPSRSQL [DGKK, Q5KSL6]
pKd [1, 23]: below the threshold
pKd [2, 23]: below the threshold
pKd [3, 23]: below the threshold
pKd [4, 23]: below the threshold
pKd [5, 23]: below the threshold
pKd [6, 23]: below the threshold
pKd [7, 23]: 4.14
pKd [8, 23]: below the threshold
pKd [9, 23]: below the threshold
pKd [10, 23]: below the threshold
pKd [11, 23]: below the threshold
pKd [12, 23]: below the threshold
pKd [13, 23]: below the threshold
pKd [14, 23]: below the threshold
pKd [15, 23]: below the threshold
pKd [16, 23]: below the threshold
pKd [17, 23]: below the threshold
pKd [18, 23]: below the threshold
pKd [19, 23]: below the threshold
pKd [20, 23]: below the threshold
pKd [21, 23]: below the threshold
pKd [22, 23]: below the threshold

MERLRVETDV [ARHGEF16, Q5VV41]
pKd [1, 23]: below the threshold
pKd [2, 23]: below the threshold
pKd [3, 23]: below the threshold
pKd [4, 23]: below the threshold
pKd [5, 23]: below the threshold
pKd [6, 23]: below the threshold
pKd [7, 23]: below the threshold
pKd [8, 23]: below the threshold
pKd [9, 23]: below the threshold
pKd [10, 23]: below the threshold
pKd [11, 23]: below the threshold
pKd [12, 23]: 4.42
pKd [13, 23]: 4.56
pKd [14, 23]: below the threshold
pKd [15, 23]: below the threshold
pKd [16, 23]: below the threshold
pKd [17, 23]: below the threshold
pKd [18, 23]: 4.1
pKd [19, 23]: below the threshold
pKd [20, 23]: below the threshold
pKd [21, 23]: below the threshold
pKd [22, 23]: below the threshold

DSKPPLPPDEWV [MERS-E, K9N5R3]
pKd [1, 24]: below the threshold
pKd [2, 24]: below the threshold
pKd [3, 24]: 3.73
pKd [4, 24]: 4.19
pKd [5, 24]: 3.92
pKd [6, 24]: below the threshold
pKd [7, 24]: below the threshold
pKd [8, 24]: below the threshold
pKd [9, 24]: below the threshold
pKd [10, 24]: below the threshold
pKd [11, 24]: below the threshold
pKd [12, 24]: below the threshold
pKd [13, 24]: below the threshold
pKd [14, 24]: below the threshold
pKd [15, 24]: 4.12
pKd [16, 24]: below the threshold
pKd [17, 24]: below the threshold
pKd [18, 24]: below the threshold
pKd [19, 24]: below the threshold
pKd [20, 24]: 4.16
pKd [21, 24]: below the threshold
pKd [22, 24]: below the threshold
